Bounds are passed on as bounds.

The results in this text go back to patent US20260227398A1, “CD62L (L-SELECTIN) APTAMER AND ITS APPLICATION FOR T CELL ISOLATION” (University of Washington, published 2026).

In data set [1] the target is human CD62L/L-selectin expressed on J.RT3-T3.5 cells (human) (UniProt P14151). In words: flow cytometry, 50 nM antibody on J.RT3-T3.5 cells 48 hours after electroporation with SELL siRNA. (In general: A flow cytometer gives signals particle by particle.)
In data set [2] the target is T1, L-selectin (CD62L, SELL) (Homo sapiens, UniProt P14151 P14151:39-332).
T1 sequence: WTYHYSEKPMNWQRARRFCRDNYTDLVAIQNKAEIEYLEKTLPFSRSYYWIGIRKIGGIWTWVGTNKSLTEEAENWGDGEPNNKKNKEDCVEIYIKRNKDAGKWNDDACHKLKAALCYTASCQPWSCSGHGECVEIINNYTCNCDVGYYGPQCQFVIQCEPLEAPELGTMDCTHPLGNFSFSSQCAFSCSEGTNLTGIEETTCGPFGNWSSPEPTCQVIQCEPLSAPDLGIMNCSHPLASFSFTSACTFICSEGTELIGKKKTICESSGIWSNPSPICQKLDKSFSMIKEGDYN
In words: BLI; +/-0.125; R2 0.9898; aptamer immobilised. Conditions: tags: recombinant human CD62L, R&D Systems; label: 5' biotin. The method, then: (§1) Prior to running, Octet streptavidin (SA) biosensors (Sartorius of Göttingen, Germany) were pre-soaked in 200 μL diluent (WB supplemented with 1% BSA, 0.1 mg/mL yeast tRNA, 0.1 mg/mL salmon sperm DNA and 0.01% Tween-20). For BLI, the SA biosensors were first rinsed in 200 μL diluent for 100 sec to establish the first baseline. The rinsed sensors were transferred to wells containing 50 nM biotinylated aptamers in 200 μL diluent for aptamer immobilization onto the SA biosensors until a threshold of 0.5 nm is reached. Next, aptamer-immobilized SA biosensors were rinsed in 200 μL diluent for 100 sec to remove excess aptamers and for an additional 100 sec in 200 μL diluent to establish the second baseline. The sensors were then transferred to wells containing different concentrations of L-selectin in 200 μL diluent to allow aptamer association with CD62L (R&D Systems of Minneapolis, Minnesota), CD62P (ACROBiosystems of Newark, Delaware), or CD62E (ACROBiosystems). Finally, the sensors were transferred to wells containing 200 μL diluent to allow dissociation. The association and dissociation durations are indicated on the BLI curves.
A general note: BLI is a label-free optical method that tracks binding on a fibre tip over time.

Data set [3] concerns the target T2, L-selectin (CD62L) on J.RT3-T3.5 cells (Homo sapiens, UniProt P14151 P14151:39-372).
T2 sequence: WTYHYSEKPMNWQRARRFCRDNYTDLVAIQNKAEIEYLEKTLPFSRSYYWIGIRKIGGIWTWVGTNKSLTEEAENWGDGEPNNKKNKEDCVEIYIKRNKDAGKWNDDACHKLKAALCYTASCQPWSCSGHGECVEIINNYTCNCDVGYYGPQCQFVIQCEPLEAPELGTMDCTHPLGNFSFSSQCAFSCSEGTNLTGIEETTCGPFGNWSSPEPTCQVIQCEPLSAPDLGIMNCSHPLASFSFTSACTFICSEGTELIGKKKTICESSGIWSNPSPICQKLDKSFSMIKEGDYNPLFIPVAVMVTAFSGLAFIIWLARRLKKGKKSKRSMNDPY
Description: flow; stated as sub-nanomolar affinity. The note with it: tags: endogenous, J.RT3-T3.5 human T-ALL line; label: 5' 6-FAM, Cy5 or biotin (hexaethylene glycol spacer).

In data set [4] the target is T1, L-selectin (CD62L, SELL). In words: BLI; +/-0.203; 1:1 fit poor (R2 0.9029); aptamer immobilised; DPBS Ca/Mg + 5 mM MgCl2, 1% BSA, tRNA, salmon sperm DNA, Tween-20. Conditions: tags: recombinant human CD62L, R&D Systems; label: 5' 6-FAM, Cy5 or biotin (hexaethylene glycol spacer). Here is the method:
Prior to running, Octet streptavidin (SA) biosensors (Sartorius of Göttingen, Germany) were pre-soaked in 200 μL diluent (WB supplemented with 1% BSA, 0.1 mg/mL yeast tRNA, 0.1 mg/mL salmon sperm DNA and 0.01% Tween-20). For BLI, the SA biosensors were first rinsed in 200 μL diluent for 100 sec to establish the first baseline. The rinsed sensors were transferred to wells containing 50 nM biotinylated aptamers in 200 μL diluent for aptamer immobilization onto the SA biosensors until a threshold of 0.5 nm is reached. Next, aptamer-immobilized SA biosensors were rinsed in 200 μL diluent for 100 sec to remove excess aptamers and for an additional 100 sec in 200 μL diluent to establish the second baseline. […]
To further validate A1 binding to CD62L, the expression of CD62L was knocked down in J.RT3-T3.5 cells with siRNA duplexes targeting the SELL gene, which encodes CD62L, and compared aptamer and antibody binding to J.RT3-T3.5 cells transfected with the SELL siRNA versus a control siRNA. […] The protein was serially diluted, and the association and dissociation kinetics of biotinylated CD62LApt.88 immobilized on streptavidin tips was measured. The dissociation constants (KD) were calculated by performing a global fit on the curves using a 1:1 model.

Data set [5] has as its target T3, L-selectin (CD62L) on primary CD4+ T cells (Homo sapiens, UniProt P14151 P14151:39-372).
T3 sequence: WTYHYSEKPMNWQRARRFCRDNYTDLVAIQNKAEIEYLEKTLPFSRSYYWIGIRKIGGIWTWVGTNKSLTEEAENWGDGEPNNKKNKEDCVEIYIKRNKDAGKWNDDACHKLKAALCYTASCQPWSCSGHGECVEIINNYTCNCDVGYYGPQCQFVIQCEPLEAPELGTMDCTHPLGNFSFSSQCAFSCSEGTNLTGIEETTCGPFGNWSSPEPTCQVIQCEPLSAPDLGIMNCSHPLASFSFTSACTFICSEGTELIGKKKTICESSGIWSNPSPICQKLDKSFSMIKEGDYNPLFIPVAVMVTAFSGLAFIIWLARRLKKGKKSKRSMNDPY
In words: flow; apparent KD +/-0.033; cryopreserved CD4+ T cells used right after thaw; DPBS Ca/Mg + 5 mM MgCl2, 4 C. The note with it: tags: endogenous, label: 5' 6-FAM, Cy5 or biotin (hexaethylene glycol spacer).

Data set [6] deals with T3, L-selectin (CD62L) on primary CD4+ T …. In words: flow; apparent KD +/-0.086; CD4+ T cells cultured in RPMI + 10% FBS. The note with it: tags: endogenous, label: 5' 6-FAM, Cy5 or biotin (hexaethylene glycol spacer).
Data set [7] concerns the target T2, L-selectin (CD62L) on J.RT3-T3.5 cells. Description: flow; DPBS Ca/Mg + 5 mM MgCl2, 25 mM glucose, BSA, 4 C. Conditions: tags: endogenous, J.RT3-T3.5 human T-ALL line; label: 5' 6-FAM or biotin (hexaethylene glycol spacer).
In data set [8] the target is P-selectin (CD62P, SELP) (Homo sapiens, UniProt P16109 P16109:42-771). Description: BLI; no noticeable binding up to 1000 nM CD62P. Conditions: tags: recombinant human CD62P, ACROBiosystems; label: 5' 6-FAM or biotin (hexaethylene glycol spacer). Here is the method: as §1, with “The association and dissociation durations are indicated on the BLI curves.” left out
P-selectin (CD62P, SELP), sequence (P16109 42-771, one chain of several): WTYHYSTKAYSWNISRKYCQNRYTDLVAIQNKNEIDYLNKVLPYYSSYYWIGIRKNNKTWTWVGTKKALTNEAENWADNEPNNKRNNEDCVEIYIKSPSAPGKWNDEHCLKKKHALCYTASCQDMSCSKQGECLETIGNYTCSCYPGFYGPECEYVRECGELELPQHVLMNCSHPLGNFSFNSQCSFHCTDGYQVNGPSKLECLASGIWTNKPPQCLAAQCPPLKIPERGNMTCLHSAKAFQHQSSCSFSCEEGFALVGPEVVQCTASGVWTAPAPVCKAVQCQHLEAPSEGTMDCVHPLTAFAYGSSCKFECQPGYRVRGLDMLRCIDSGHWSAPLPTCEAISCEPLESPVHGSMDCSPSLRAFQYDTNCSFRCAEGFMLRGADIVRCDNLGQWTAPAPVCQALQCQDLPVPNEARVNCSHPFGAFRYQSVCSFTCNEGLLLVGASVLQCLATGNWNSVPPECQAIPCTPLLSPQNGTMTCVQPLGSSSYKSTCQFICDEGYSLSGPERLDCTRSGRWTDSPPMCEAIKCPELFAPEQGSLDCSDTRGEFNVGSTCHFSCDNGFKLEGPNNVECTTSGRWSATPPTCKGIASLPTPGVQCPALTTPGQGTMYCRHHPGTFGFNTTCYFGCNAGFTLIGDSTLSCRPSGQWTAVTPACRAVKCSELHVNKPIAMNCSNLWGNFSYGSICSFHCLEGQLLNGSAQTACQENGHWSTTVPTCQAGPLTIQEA
(§2) The binding affinity and kinetics of CD62LApt.52 to JRT.3-T3.5 cells and to recombinant human CD62L protein was characterized by flow cytometry and BLI, respectively. […] However, no noticeable binding of CD62LApt.52 to either CD62E or CD62P at up to 1000 nM was detected by BLI (FIGS. 15A, 15B).

For data set [9], the target named is T4, E-selectin (CD62E, SELE) (Homo sapiens, UniProt P16581 P16581:22-556).
T4 sequence: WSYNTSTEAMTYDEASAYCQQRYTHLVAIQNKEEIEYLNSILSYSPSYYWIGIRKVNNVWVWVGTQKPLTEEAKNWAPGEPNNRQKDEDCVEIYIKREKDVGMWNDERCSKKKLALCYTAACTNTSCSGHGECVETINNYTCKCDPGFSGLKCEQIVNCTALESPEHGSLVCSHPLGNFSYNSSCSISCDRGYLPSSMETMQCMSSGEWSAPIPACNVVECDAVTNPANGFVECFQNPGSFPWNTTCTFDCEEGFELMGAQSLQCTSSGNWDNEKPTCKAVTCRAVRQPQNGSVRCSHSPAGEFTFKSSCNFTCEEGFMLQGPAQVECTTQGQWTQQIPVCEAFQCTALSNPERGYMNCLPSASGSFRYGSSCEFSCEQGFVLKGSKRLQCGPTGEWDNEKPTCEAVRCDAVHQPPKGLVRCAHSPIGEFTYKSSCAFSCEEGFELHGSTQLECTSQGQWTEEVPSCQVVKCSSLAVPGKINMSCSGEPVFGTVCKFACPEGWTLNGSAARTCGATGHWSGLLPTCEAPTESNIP
In words: BLI; no noticeable binding up to 1000 nM CD62E. Conditions: tags: recombinant human CD62E, ACROBiosystems; label: 5' 6-FAM or biotin (hexaethylene glycol spacer). Here is the method:
as §1, with “The association and dissociation durations are indicated on the BLI curves.” left out
as §2

Data set [10] deals with T1, L-selectin (CD62L, SELL). In words: BLI; +/-0.045; R2 0.9959; aptamer immobilised. Conditions: tags: recombinant human CD62L, R&D Systems; label: 5' 6-FAM or biotin (hexaethylene glycol spacer). The method, then:
as §1, with “The association and dissociation durations are indicated on the BLI curves.” left out
as §2

Take “Alexa Fluor 488 anti-human CD62L monoclonal antibody, clone DREG-56 (BioLegend)”: the relative antibody binding after CD62L siRNA knockdown (vs control siRNA) in data set [1] came out at 17%.

B1: CD62LApt.61 (ssDNA)
DNA: AGACCCGACGCAGCATAGTCAAGGCGATAGACGAAAAACATTGTTTTCCTGGAAGGCCCAGAATCTGCG
As for B1, in data set [2], the Kd is 5.81 nM.

B2: CD62LApt.88 (A1, L-SA.88) (ssDNA)
DNA: ATCCAGAGTGACGCAGCATAGTCAAGGCGATAGACGAAAAACATTGTTTTCCTGGAAGGCCCAGAATCTGTGGACACGGTGGCTTAGT
As for B2, the Kd in data set [3] was less than 1 nM; in data set [4], 4.91 nM; in data set [5], 0.04 nM; in [6], 0.31 nM.

B3: CD62LApt.52 (ssDNA)
DNA: TAGTCAAGGCGATAGACGAAAAACATTGTTTTCCTGGAAGGCCCAGAATCTG
On to B3, for which the figures for the Kd in [7] and in data set [10] were 0.19 nM and 5.3 nM, respectively. Moreover, the binding result in data set [8] and in [9] was “no binding” each time.
